Earlier results, collected in PMC9760969.

Biological target: CD95L (Homo sapiens) (UniProt P48023)
Chain of UniProt P48023 (P48023 130-281): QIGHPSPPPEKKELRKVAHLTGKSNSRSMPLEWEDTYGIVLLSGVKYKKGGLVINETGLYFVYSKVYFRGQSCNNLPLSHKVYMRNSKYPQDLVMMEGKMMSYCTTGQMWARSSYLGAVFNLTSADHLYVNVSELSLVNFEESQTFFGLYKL

In the case of DR5 (from UniProt O14763), the Kd is listed as 1.23 pM.
